According to patent publication US20080009025A1, “PROTEIN KINASE REGULATION” (priority 1999, published 2008):

Target: GST-PDK1[K115A], O15530
Assay: cell-based or functional assay

Sequence of GST-PDK1[K115A], O15530 (O15530 whole entry K115A): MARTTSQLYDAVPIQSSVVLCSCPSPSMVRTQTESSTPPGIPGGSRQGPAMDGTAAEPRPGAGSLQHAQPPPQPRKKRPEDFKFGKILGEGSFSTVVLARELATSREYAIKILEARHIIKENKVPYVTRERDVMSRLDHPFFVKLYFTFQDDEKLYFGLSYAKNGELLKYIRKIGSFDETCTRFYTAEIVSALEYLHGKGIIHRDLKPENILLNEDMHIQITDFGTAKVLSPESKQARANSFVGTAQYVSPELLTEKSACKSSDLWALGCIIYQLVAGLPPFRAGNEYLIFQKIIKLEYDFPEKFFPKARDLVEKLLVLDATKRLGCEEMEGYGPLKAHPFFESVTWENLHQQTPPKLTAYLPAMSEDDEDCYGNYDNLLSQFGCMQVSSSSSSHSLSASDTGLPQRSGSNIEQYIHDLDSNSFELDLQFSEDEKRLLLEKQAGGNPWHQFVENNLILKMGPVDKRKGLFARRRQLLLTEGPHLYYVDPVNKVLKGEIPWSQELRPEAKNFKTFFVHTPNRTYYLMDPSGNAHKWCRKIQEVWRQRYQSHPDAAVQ

inhibition by 2 µM PIFtide of the activation of S6K1-T2[T412E] and SGK1[T422D] by this PDK1 mutant: 50% | inhibition by 35 µM PIFtide of the activation of S6K1-T2[T412E] and SGK1[T422D] by this PDK1 mutant: > 95%
Binder: REPRILSEEEQEMFRDFDYIADWC [PIFtide (24 residue synthetic peptide encompassing the PDK1 binding site on PIF)]
